Measured values reported in US20110052565A1 (NATIONAL RESEARCH COUNCIL OF CANADA, published 2011).

B1: huVHAm302 (other)
VH: QVQLVESGGGLIKPGGSLRLSCAASGDTVSDESMTWVRQAPGKGLEWVSAISSSGGSTYYADSVKGRFTISRDNSKNTVYLQMNSLRAEDTAVYYCVTDNRSCQTSLCTSTTRSWGQGTMVTVSSGSEQKLSEEDLNHHHHHH
modifications: N-terminus pyroglutamine (pyroQ)
notes: Human VH single-domain antibody, soluble with c-Myc-His6 tag, amber codon at position 32 replaced by Glu; In the phage ELISA rows the same VH stood on phage (pIII fusion)
B2: huVHAm431 (other)
VH: QVQLVESGGGLIKPGGSLRLSCAASGYTVSSECMGWVRQAPGKGLEWVSAISSSGGSTYYADSVKGRFTISRDNSKNTVYLQMNSLRAEDTAVYYCVRDSKNCHDKDCTRPYCSWGQGTMVTVSS
notes: Human VH single-domain antibody, soluble; In the phage ELISA rows the same VH stood on phage (pIII fusion); not shown: C-terminal c-Myc-His6 tag from vector pSJF2H
B3: huVHAm427 (other)
VH: QVQLVESGGGLIKPGGSLRLSCAASGVTLSPECMAWVRQAPGKGLEWVSAISSSGGSTYYADSVKGRFTISRDNSKNTVYLQMNSLRAEDTAVYYCVSCEGENAFWGQGTMVTASS
notes: Human VH single-domain antibody, soluble, amber codon replaced by Glu; In the phage ELISA rows the same VH stood on phage (pIII fusion); not shown: C-terminal c-Myc-His6 tag from vector pSJF2H
B4: huVHAm430 (other, not shown: small tags and cut ends)
VH: QVQLVESGGGLIKPGGSLRLSCAASGDRVSPEDMAWVRQAPGKGLEWVSAISSSGGSTYYADSVKGRFTISRDNSKNTVYLQMNSLRAEDTAVYYCVTSGVPSGSFWGQETMVTVSS
notes: amber codon read as Glu in E. coli TG1
B5: huVHAm406 (other, not shown: small tags and cut ends)
VH: QVQLVESGGGLIKPGGSLRLSCAASGFSFTPECMGWVRQAPGKGLEWVSAISSSGGSTYYADSVKGRFTISRDNSKNTVYLQMNSLRAEDTAVYYCVGHKNNCPGQGTMVTVSS
notes: as for B4
B6: huVHAm412 (other, not shown: small tags and cut ends)
VH: QVQLVESGGGLIKPGGSLRLSCAASGDMLSAECMGWVRQAPGKGLEWVSAISSSGGSTYYADSVKGRFTISRDNSKNTVYLQMNSLRAEDTAVYYCVAKPYHCAVQGTMVTVSS
notes: as for B4
B7: huVHAm420 (other, not shown: small tags and cut ends)
VH: QVQLVESGGGLIKPGGSLRLSCAASGDRFSYEDMAWVPQAPGKGLEWVSAISSSGGSTYYADSVKGRFTISRDNSKNTVYLQMNSLRAEDTAVYYCVATEESCPEGNCPPPRRSWGQETMVTVSS
notes: as for B4
B8: huVHAm309 (other)
VH: QVQLVESGGGLIKPGGSLRLSCAASGVNFSNEGMAWVRQAPGKGLEWVSAISSSGGSTYYADSVKGRFTISRDNSKNTVYLQMNSLRAEDTAVYYCVTAQRACANSPCPGSITSWGQETMVTVSS
notes: as for B3
B9: huVHAm304 (other)
VH: VQLVESGGGLIEPGGSLRLSCAASGFSFSDEGMAWVRQAPGKGLEWVSAISSSGGSTYYADSVKGRFTISRDNSKNTVYLQMNSLRAEDTAVYYCVRLPKQCTSPDCETEVSSWGQRTMVTVSS
notes: Human VH single-domain antibody, soluble, amber codons replaced by Glu; In the phage ELISA rows the same VH stood on phage (pIII fusion); not shown: C-terminal c-Myc-His6 tag from vector pSJF2H
B10: huVHAm416 (other)
VH: QVQLVESGGGLIKPGGSLRLSCAASGVSFTDDCMAWVRQAPGKGLEWVSAISSSGGSTYYADSVKGRFTISRDNSKNTVYLQMNSLRAEDTAVYYCVADHTQCRQPECESQLCSWGQGTMVTVSS
notes: as for B3
B11: huVHAm428 (other)
VH: QVQLVESGGGLIKPGGSLRLSCAASGFSLSDDCMGWVRQAPGKGLEWVSAISSSGGSTYYADSVKGRFTISRDNSKNTVYLQMNSLRAEDTAVYYCVTGNQACKHEPWPDEALLLGPRDNVTVSS
notes: as for B3
B12: huVHAm316 (other)
VH: QVQLVESGGGLIKPGGSLRLSCAASGDRFTYESMGWVRQAPGKGLEWVSAISSSGGSTYYADSVKGRFTISRDNSKNTVYLQMNSLRAEDTAVYYCVALETACTRPACAHTPRFWGQGTMVTVSS
notes: as for B3
B13: huVHAm303 (other, not shown: small tags and cut ends)
VH: QVQLVESGGGLIKPGGSLRLSCAASGFRFSYEVMGWVRQAPGKGLEWVSAISSSGGSTYYADSVKGRFTISRDNSKNTVYLQMNSLRAEDTAVYYCVTPKVDCETHPCRERPYFWGQGTMVTVSS
notes: as for B4
B14: huVHAm305 (other, not shown: small tags and cut ends)
VH: QVQLVESGGGLIKPGGSLRLSCAASGYRFNNEVMGWVRQAPGKGLEWVSAISSSGGSTYYADSVKGRFTISRDNSKNTVYLQMNSLRAEDTAVYYCVTSTPACNQDKCERWRPSWGQGTMVTASS
notes: as for B4
B15: huVHAm311 (other, not shown: small tags and cut ends)
VH: QVQLVESGGGLIKPGGSLRLSCAASGFRVTPECMTWVRQAPGKGLEWVSAISSSGGSTYYADSVKGRFTISRDNSKNTVYLQMNSLRAEDTAVYYCVRHEVECPTEQCPFHCPSWGQGTMVTVSS
notes: as for B4
B16: huVHAm315 (other)
VH: QVQLVESGGGLIKPGGSLRLSCAASGDMFSSEGMAWVRQAPGKGLEWVSAISSSGGSTYYADSVKGRFTISRDNSKNTVYLQMNSLRAEDTAVYYCVAAPTTCTSHNCAEPFRSWGQETMVTVSS
notes: as for B3
B17: huVHAm301 (other, not shown: small tags and cut ends)
VH: QVQLVESGGGLIKPGGSLRLPCAASGFRISHEGMGWVRQAPGKGLEWVSAISSSGGSTYYADSVKGRFTISRDNSKNTAYLQMNSLRAEDTAVYYCVAYNEECTKPSCHTKARSWGQGTMVTVSS
notes: as for B4

Each binder was assayed against T1, porcine pancreatic α-amylase (porcine, UniProt P00690 16-511) (assay: told in the legend of the α-amylase inhibition figure (FIG. 10)).
T1 construct: Bought (Sigma); The source is named only for the ELISA with soluble VHs; the panning and phage ELISA paragraphs say only α-amylase; also called a-amylase
T1 sequence (looked up): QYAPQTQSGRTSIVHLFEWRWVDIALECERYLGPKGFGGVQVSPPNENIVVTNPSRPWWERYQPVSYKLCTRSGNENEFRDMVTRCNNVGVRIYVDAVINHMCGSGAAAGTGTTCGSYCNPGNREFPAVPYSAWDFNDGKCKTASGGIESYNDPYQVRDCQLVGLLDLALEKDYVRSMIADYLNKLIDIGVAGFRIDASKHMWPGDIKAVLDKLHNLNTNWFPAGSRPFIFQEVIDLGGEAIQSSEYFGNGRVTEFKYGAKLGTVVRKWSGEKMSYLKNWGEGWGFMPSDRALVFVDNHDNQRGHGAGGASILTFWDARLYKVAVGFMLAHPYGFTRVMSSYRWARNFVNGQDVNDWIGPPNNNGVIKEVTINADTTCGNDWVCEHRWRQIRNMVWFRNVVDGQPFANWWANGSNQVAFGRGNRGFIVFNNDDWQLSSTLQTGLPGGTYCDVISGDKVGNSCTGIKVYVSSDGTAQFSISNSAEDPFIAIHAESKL
Protocol: Briefly, the enzyme at a final concentration of 1.5 μg/mL in 0.1% casein, 150 mM NaCl, 2 mM CaCl₂, 50 mM Tris-HCl pH 7.4 was preincubated with various concentrations of purified monomeric anti-α-amylase VHs at room temperature for 1 h (total volume: 50 μL). The mixture was split in two ELISA wells and to each well 75 μL of substrate solution (0.2 mM 2-chloro-4-nitrophenyl maltotrioside, 150 mM NaCl, 2 mM CaCl₂, 50 mM Tris-HCl pH 7.4) was added. […] The progress of reactions was monitored continuously at 25° C. by measuring the change in absorbance of reaction solutions at 405 nm (ΔA405 nm) using a PowerWave 340 microplate spectrophotometer (BioTek Instruments, Inc. Winooski, Vt.). […] The VHs was thus analyzed by ELISA.

Binder | binding result
B1 | binds

Each binder was assayed against T1, porcine pancreatic α-amylase (assay: phage ELISA, round 4 of heat denaturation panning; VH displayed on phage; member by Table 2, column R4).

Binder | binding result
B2 | binds
B3 | binds
B4 | binds
B5 | binds
B6 | binds
B7 | binds

These binders were tested against T2, protein A (UniProt P38507 37-477) (assay: SPR (Biacore 3000), protein A immobilized; KD of native VH over KD of heat-denatured/cooled VH, unfolded at 0.5 µM).
T2 construct: Immobilized unconjugated on a CM5 chip in SPR; used as HRP conjugate in the ELISA; also called protein A/HRP conjugate; horseradish peroxidase-protein A conjugate
Protocol: (§1) Immobilizations were carried out at a protein concentration of 50 μg/mL in 10 mM acetate buffer pH 4.5 using amine coupling kit supplied by the manufacturer. AD VHs were passed though Superdex™ 75 column (GE Healthcare) and the monomeric species were collected for refolding efficiency experiments. To obtain refolding efficiency values, VHs were incubated at 85° C. for 20 min at the concentration of 0.5 and 5 μM and were cooled to room temperature for 30 min. The VHs were centrifuged at 16,000 g in a microfuge for 5 min at 22° C. to pellet and remove any possible aggregates. […] The surfaces were washed thoroughly with the running buffer for regeneration. Refolding efficiencies were calculated from the amounts bound at steady state. Data were analyzed with BIAevaluation 4.1 software.

Binder | TRE (%) (ratio of KDn to KDref)
B8 | 94
B9 | 99
B10 | 100
B11 | 89

What follows are binders tested against T3, bovine serum albumin (bovine, UniProt P02769 25-607) (assay: ELISA, immobilized BSA, His6-tagged VH detected with anti-His-IgG/HRP (FIG. 9A)).
T3 construct: also called BSA
T3 sequence (P02769 25-607 limits assumed): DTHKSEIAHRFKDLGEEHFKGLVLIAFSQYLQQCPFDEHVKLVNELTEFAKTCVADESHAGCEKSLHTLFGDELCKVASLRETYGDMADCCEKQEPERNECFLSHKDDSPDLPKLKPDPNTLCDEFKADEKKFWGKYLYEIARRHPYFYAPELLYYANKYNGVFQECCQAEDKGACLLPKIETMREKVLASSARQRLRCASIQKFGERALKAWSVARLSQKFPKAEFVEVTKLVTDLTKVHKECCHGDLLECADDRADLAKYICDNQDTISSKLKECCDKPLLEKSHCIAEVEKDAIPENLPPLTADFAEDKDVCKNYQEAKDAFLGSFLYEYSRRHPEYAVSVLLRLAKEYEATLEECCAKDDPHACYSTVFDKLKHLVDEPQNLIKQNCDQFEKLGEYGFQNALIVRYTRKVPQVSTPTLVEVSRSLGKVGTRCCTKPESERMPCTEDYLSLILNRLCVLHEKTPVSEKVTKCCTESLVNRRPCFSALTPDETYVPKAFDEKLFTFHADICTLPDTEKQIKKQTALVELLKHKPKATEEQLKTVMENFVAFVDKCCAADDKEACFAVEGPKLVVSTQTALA

Binder | binding result
B8 | no binding
B9 | no binding
B10 | no binding
B11 | no binding

These binders were tested against T2, protein A (assay: SPR (Biacore 3000), protein A immobilized; KD of native VH over KD of heat-denatured/cooled VH, unfolded at 5 µM).
Protocol: as §1

Binder | TRE (%) (ratio of KDn to KDref)
B8 | 93
B9 | 87
B10 | 97
B11 | 86

The binders below were run against T1, porcine pancreatic α-amylase (assay: phage ELISA, round 3 of heat denaturation panning; VH displayed on phage; member by Table 2, column R3).
Protocol: For selection by heat denaturation, input phage in a multivalent display format was used (i.e., the phages were produced by using hyperphage for superinfection). The input phage was heated at 80° C. for 10 min, cooled at 4° C. for 20 min, centrifuged at maximum speed for 2 min in a microfuge and the supernatant was added to antigen-coated wells for binding. Three rounds of panning against α-amylase by the heat denaturation method were performed. A non-treatment panning was also carried out in parallel as control. […] Monoclonal Phage ELISA on single colonies was performed (Arbabi-Ghahroudi et al., 2009). ELISA-positive clones were subjected to DNA sequencing to identify their VHs (Arbabi-Ghahroudi et al., 2009). Isoelectric points, pIs, of the VHs were determined using the software Laser gene v6.0 (DNASTAR, Inc., Madison, Wis.).

Binder | binding result
B12 | binds
B13 | binds
B14 | binds
B15 | binds
B16 | binds
B17 | binds

The binders below were run against T1, porcine pancreatic α-amylase (assay: ELISA, immobilized porcine pancreatic α-amylase, His6-tagged VH, anti-His-IgG/HRP).
Protocol: To assess binding of VHs to a-amylase by ELISA, Maxisorp™ microtiter plates (Nunc) were coated with 100 μL of 10 μg/mL porcine pancreatic α-amylase (Sigma, Oakville, ON, Canada) in PBS overnight at 4° C. After blocking with 3% bovine serum albumin (300 μL) for 2 h at 37° C. and subsequent removal of blocking agent, 100 μL His₆-tagged VHs at concentrations of a few μM were added, followed by incubation for 2 h at 37° C. Wells were washed 5× with PBST and 100 μL rabbit anti-His-IgG/horse radish peroxidase (HRP) conjugate (Bethyl Laboratories, Inc., Montgomery, Tex.) was added at a dilution of 1:5000. The wells were then incubated for 1 h at 37° C. After washing the wells with PBST, 100 μL […] substrate (KPL, Gaithersburg, Md.) was added and the reaction, seen as color development, was stopped after 5 min by adding 100 μL of 1 M phosphoric acid. Absorbance values were measured at a wavelength of 450 nm using a microtiter plate reader. […] Assays were performed in duplicates.

Binder | binding result
B8 | binds
B10 | binds
B11 | binds
